Values quoted from earlier work in article PMC12564508.

Target: NS4B (Dengue virus) (UniProt P27909)

Q: Which Kd does the source give for NS4A (from UniProt P27909) here?
A: 0.05 µM
